Results published in publication PMC9482650, “Quantitative fragmentomics allow affinity mapping of interactomes” (Nature Communications, 2022).

Assays:
Test in all cases: holdup assay
Set-up in all cases: key: below the threshold = too weak to quantify, mostly under pKd 3.1 to 4
Conditions in all cases: plain residues with an end cap or a label only (N-terminal biotin on a linker: ado-ado)
MAGI2_6, Q86UL8 = target: MAGI2_6, Q86UL8
MPDZ_10, O75970 = target: T1, MPDZ_10, O75970
T1 sequence (O75970 1624-1722, limits assumed, looked up): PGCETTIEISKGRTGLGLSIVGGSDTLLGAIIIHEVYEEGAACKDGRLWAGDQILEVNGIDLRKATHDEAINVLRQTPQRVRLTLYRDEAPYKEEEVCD

SNTB1, Q13884 = target: T2, SNTB1, Q13884
T2 sequence (Q13884 107-205, limits assumed, looked up): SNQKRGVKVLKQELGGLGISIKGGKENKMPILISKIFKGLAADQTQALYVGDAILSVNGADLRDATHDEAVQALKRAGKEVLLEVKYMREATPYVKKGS

LNX1_3, Q8TBB1 = target: LNX1_3, Q8TBB1
LAP2, Q96RT1 = target: LAP2, Q96RT1
DFNB31_3, Q9P202 = target: T3, DFNB31_3, Q9P202
T3 sequence (Q9P202 811-907, limits assumed, looked up): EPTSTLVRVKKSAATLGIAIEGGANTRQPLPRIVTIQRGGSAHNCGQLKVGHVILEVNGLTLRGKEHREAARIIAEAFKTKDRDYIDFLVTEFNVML

ARHGEF11, O15085 = target: T4, ARHGEF11, O15085
T4 sequence (O15085 42-136, limits assumed, looked up): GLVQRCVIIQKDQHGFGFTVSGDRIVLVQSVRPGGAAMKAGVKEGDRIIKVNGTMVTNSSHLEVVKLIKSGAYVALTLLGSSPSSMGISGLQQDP

SIPA1L2, Q9P2F8 = target: T5, SIPA1L2, Q9P2F8
T5 sequence (Q9P2F8 945-1036, limits assumed, looked up): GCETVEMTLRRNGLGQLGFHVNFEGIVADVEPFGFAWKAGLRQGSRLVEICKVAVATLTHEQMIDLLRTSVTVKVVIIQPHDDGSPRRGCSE

NHERF3_4, Q5T2W1 = target: T6, NHERF3_4, Q5T2W1
T6 sequence (Q5T2W1 373-468, limits assumed, looked up): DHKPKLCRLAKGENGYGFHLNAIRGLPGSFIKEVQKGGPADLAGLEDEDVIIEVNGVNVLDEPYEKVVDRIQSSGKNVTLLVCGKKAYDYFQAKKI

FRMPD2_1, Q68DX3 = target: FRMPD2_1, Q68DX3
PCLO, Q9Y6V0 = target: T7, PCLO, Q9Y6V0
T7 sequence (Q9Y6V0 4491-4600, limits assumed, looked up): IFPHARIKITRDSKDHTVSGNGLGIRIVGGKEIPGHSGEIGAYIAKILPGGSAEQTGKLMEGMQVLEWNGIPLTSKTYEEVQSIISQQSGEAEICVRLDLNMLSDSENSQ

GRIP1_2, Q9Y3R0 = target: T8, GRIP1_2, Q9Y3R0
T8 sequence (Q9Y3R0 145-248, limits assumed, looked up): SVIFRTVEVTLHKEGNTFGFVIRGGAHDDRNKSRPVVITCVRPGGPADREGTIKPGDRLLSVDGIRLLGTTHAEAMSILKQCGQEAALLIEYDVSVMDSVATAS

GRIP1_7, Q9Y3R0 = target: T9, GRIP1_7, Q9Y3R0
T9 sequence (Q9Y3R0 999-1096, limits assumed, looked up): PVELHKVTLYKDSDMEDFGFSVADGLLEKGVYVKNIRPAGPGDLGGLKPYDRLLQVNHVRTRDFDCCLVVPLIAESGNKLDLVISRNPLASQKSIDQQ

ARHGAP21, Q5T5U3 = target: T10, ARHGAP21, Q5T5U3
T10 sequence (Q5T5U3 45-169, limits assumed, looked up): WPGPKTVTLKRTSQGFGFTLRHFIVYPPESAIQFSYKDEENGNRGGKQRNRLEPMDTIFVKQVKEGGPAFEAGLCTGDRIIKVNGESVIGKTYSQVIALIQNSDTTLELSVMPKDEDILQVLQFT

DLG4_2, P78352 = target: DLG4_2, P78352
MPDZ_12, O75970 = target: T11, MPDZ_12, O75970
T11 sequence (O75970 1857-1958, limits assumed, looked up): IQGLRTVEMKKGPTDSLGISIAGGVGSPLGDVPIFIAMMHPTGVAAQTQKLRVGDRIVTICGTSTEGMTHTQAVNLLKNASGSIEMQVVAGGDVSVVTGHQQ

PARD3B_1, Q8TEW8 = target: T12, PARD3B_1, Q8TEW8
T12 sequence (Q8TEW8 196-299, limits assumed, looked up): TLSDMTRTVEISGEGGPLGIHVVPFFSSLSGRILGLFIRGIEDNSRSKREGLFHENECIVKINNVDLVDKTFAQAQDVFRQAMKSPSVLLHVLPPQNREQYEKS

Inadl_3, Q8NI35 = target: Inadl_3, Q8NI35
IL16_4, Q14005 = target: IL16_4, Q14005
MAST1, Q9Y2H9 = target: MAST1, Q9Y2H9
MAGI2_3, Q86UL8 = target: MAGI2_3, Q86UL8
GRIP2_5, Q9C0E4 = target: GRIP2_5, Q9C0E4
IL16_3, Q14005 = target: IL16_3, Q14005
LNX2_3, Q8N448 = target: T13, LNX2_3, Q8N448
T13 sequence (Q8N448 463-564, limits assumed, looked up): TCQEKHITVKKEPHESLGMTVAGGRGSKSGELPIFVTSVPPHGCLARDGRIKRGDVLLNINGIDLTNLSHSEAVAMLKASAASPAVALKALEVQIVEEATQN

IL16_3, Q14005, sequence (Q14005 1107-1207): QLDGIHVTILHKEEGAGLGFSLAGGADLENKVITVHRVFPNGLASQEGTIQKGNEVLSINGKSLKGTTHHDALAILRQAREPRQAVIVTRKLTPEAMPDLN
MAST1, Q9Y2H9, sequence (Q9Y2H9 962-1065): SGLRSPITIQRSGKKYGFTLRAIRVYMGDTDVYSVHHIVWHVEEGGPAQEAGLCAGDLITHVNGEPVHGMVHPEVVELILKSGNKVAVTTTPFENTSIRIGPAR
LAP2, Q96RT1, sequence (Q96RT1 other isoform, or with tags, fused parts or gaps): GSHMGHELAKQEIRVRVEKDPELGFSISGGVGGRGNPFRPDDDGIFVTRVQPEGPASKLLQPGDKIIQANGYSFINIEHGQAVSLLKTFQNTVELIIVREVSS
IL16_4, Q14005, sequence (Q14005 1229-1329): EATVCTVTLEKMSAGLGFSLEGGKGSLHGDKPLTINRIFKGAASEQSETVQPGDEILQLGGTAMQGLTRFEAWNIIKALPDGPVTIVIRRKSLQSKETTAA
MAGI2_3, Q86UL8, sequence (Q86UL8 600-682): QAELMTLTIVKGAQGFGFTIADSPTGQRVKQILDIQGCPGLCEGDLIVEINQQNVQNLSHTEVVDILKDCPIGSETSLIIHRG
LNX1_3, Q8TBB1, sequence (Q8TBB1 500-596): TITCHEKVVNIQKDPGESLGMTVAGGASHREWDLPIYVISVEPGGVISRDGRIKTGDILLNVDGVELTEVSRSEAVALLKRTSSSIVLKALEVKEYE
GRIP2_5, Q9C0E4, sequence (Q9C0E4 544-642): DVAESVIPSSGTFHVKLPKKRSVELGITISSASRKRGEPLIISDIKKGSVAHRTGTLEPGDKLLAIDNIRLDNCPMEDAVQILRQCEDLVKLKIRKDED
MAGI2_6, Q86UL8, sequence (Q86UL8 1141-1229): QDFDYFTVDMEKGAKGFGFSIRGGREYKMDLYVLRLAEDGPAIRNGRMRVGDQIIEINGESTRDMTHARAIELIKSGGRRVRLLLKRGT
DLG4_2, P78352, sequence (P78352 155-259): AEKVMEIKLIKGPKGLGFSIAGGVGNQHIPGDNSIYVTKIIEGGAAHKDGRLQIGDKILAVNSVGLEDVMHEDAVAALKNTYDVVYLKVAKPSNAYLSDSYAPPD
Inadl_3, Q8NI35, sequence (Q8NI35 359-469): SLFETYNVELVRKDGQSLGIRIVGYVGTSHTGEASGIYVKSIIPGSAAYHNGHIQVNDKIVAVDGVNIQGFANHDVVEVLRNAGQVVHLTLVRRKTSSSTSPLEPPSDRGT
FRMPD2_1, Q68DX3, sequence (Q68DX3 770-861): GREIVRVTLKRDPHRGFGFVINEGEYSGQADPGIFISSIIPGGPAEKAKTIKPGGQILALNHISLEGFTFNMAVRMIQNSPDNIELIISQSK

NIAESLESLV [PTPRZ1, P23471]
pKd (MAGI2_6, Q86UL8): 3.96 | pKd (MPDZ_10, O75970): below the threshold | pKd (SNTB1, Q13884): 4.68 | pKd (LNX1_3, Q8TBB1): below the threshold | pKd (LAP2, Q96RT1): 4.25 | pKd (DFNB31_3, Q9P202): below the threshold | pKd (ARHGEF11, O15085): 3.67 | pKd (SIPA1L2, Q9P2F8): below the threshold | pKd (NHERF3_4, Q5T2W1): below the threshold | pKd (FRMPD2_1, Q68DX3): below the threshold | pKd (PCLO, Q9Y6V0): below the threshold | pKd (GRIP1_2, Q9Y3R0): below the threshold | pKd (GRIP1_7, Q9Y3R0): below the threshold | pKd (ARHGAP21, Q5T5U3): below the threshold | pKd (DLG4_2, P78352): 5.09 | pKd (MPDZ_12, O75970): below the threshold | pKd (PARD3B_1, Q8TEW8): below the threshold | pKd (Inadl_3, Q8NI35): 4.13 | pKd (IL16_4, Q14005): below the threshold | pKd (MAST1, Q9Y2H9): below the threshold | pKd (MAGI2_3, Q86UL8): 4.44 | pKd (GRIP2_5, Q9C0E4): below the threshold | pKd (IL16_3, Q14005): below the threshold | pKd (LNX2_3, Q8N448): below the threshold

STKRKLASAV [NCF1, P14598]
pKd (MAGI2_6, Q86UL8): below the threshold | pKd (MPDZ_10, O75970): 3.64 | pKd (SNTB1, Q13884): below the threshold | pKd (LNX1_3, Q8TBB1): below the threshold | pKd (LAP2, Q96RT1): below the threshold | pKd (DFNB31_3, Q9P202): 3.85 | pKd (ARHGEF11, O15085): 3.74 | pKd (SIPA1L2, Q9P2F8): below the threshold | pKd (NHERF3_4, Q5T2W1): below the threshold | pKd (FRMPD2_1, Q68DX3): below the threshold | pKd (PCLO, Q9Y6V0): below the threshold | pKd (GRIP1_2, Q9Y3R0): below the threshold | pKd (GRIP1_7, Q9Y3R0): below the threshold | pKd (ARHGAP21, Q5T5U3): below the threshold | pKd (DLG4_2, P78352): 4.51 | pKd (MPDZ_12, O75970): 3.52 | pKd (PARD3B_1, Q8TEW8): below the threshold | pKd (Inadl_3, Q8NI35): below the threshold | pKd (IL16_4, Q14005): below the threshold | pKd (MAST1, Q9Y2H9): below the threshold | pKd (MAGI2_3, Q86UL8): below the threshold | pKd (GRIP2_5, Q9C0E4): below the threshold | pKd (IL16_3, Q14005): below the threshold | pKd (LNX2_3, Q8N448): below the threshold

VKRNSKETVV [MARCHF3, Q86UD3]
pKd (MAGI2_6, Q86UL8): below the threshold | pKd (MPDZ_10, O75970): below the threshold | pKd (SNTB1, Q13884): 5.19 | pKd (LNX1_3, Q8TBB1): below the threshold | pKd (LAP2, Q96RT1): 3.54 | pKd (DFNB31_3, Q9P202): 3.92 | pKd (ARHGEF11, O15085): 4.04 | pKd (SIPA1L2, Q9P2F8): below the threshold | pKd (NHERF3_4, Q5T2W1): below the threshold | pKd (FRMPD2_1, Q68DX3): 3.8 | pKd (PCLO, Q9Y6V0): below the threshold | pKd (GRIP1_2, Q9Y3R0): below the threshold | pKd (GRIP1_7, Q9Y3R0): below the threshold | pKd (ARHGAP21, Q5T5U3): below the threshold | pKd (DLG4_2, P78352): 6.03 | pKd (MPDZ_12, O75970): below the threshold | pKd (PARD3B_1, Q8TEW8): below the threshold | pKd (Inadl_3, Q8NI35): 3.49 | pKd (IL16_4, Q14005): below the threshold | pKd (MAST1, Q9Y2H9): below the threshold | pKd (MAGI2_3, Q86UL8): 4.2 | pKd (GRIP2_5, Q9C0E4): below the threshold | pKd (IL16_3, Q14005): below the threshold | pKd (LNX2_3, Q8N448): below the threshold
